# Experimental data taken from patent US20220249611A1 (Stanford University, published 2022).
# HA tag and linker = not defined here
# T1: human FGFR1 beta (IIIc)-Fc (R&D Systems) (human, UniProt P11362-14 22-285, limits assumed)
# T1 construct: Bought reagent; also called FGFR1-Fc; Fc fusion of FGFR1; not shown: Fc domain (detected with anti-human IgG)
# T1 sequence (looked up): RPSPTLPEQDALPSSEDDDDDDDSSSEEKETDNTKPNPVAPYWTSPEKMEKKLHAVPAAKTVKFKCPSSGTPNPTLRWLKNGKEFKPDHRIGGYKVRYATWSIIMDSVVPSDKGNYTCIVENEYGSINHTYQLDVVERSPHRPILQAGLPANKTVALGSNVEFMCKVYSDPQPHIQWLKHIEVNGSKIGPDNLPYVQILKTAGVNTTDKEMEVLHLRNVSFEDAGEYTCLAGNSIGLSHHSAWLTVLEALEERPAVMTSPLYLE
# How the values were obtained:
# [1] = molecular target: FGFRs expressed on NIH3T3 cells; assay: equilibrium binding titration on NIH3T3 cells at 4 C, flow cytometry with anti-His antibody
# [2] = molecular target: FGFRs expressed on NIH3T3 cells; assay: cell-based or functional assay
# [3] = molecular target: T1, human FGFR1 beta (IIIc)-Fc (R&D Systems); assay: flow cytometry, yeast-displayed peptide with soluble FGFR1-Fc
# Description: FIG. 15. Non-binding of peptide artifacts to FGFR1-Fc. Yeast cells expressing RTTTS or HTTS peptides on their cell surface were incubated with 10 nM FGFRT-Fc. Cells were stained with fluorescent antibodies for expression (α-c-myc) and binding (α-FGFR1-Fc).
# 50,000 induced yeast cells were incubated with various concentrations of FGFR1-Fc in phosphate-buffered saline with 1 g/L BSA (PBSA) at room temperature. Cells were incubated in sufficiently large volumes to avoid ligand depletion and long enough times (typically 3 to 24 hours) to reach equilibrium. During the last 30 minutes of incubation, yeast cells were incubated with 1:2500 dilution of chicken anti-c-Myc (Invitrogen) in PBSA. Yeast were pelleted, washed, then incubated with 1:200 dilution of secondary antibodies on ice for 10 min: anti-Human IgG-FITC (Sigma Aldrich) against FGFR1-Fc and anti-chicken-IgY-PE (Santa Cruz Biotechnology) against anti-c-myc. Yeast were washed, pelleted, and resuspended in PBSA immediately before analysis by flow cytometry using EMD Millipore Guava EasyCyte. Flow cytometry data were analyzed using FlowJo (v7.6.1). Binding curves were plotted and Kd values were obtained using GraphPad Prism 6.
Molecule,Kd [1] [nM],"inhibition of ERK phosphorylation induced by 1 nM wild type FGF1 in NIH3T3 cells (Western blot against phosphoERK), IC50 [2] [nM]",binding result [3]
"recombinant soluble FGF1 L131R mutant with N-terminal 6x His tag (E. coli, pBAD/His B) (from UniProt P05230 16-155) (ligand)",10,1,–
"recombinant soluble wild-type FGF1 with N-terminal 6x His tag (E. coli, pBAD/His B) (from UniProt P05230 16-155) (ligand)",10,–,–
"{Aga2p-HA tag and linker}-HTTS-{c‑myc tag} (reading uncertain, not shown: Aga2p of S. cerevisiae, yeast display fusion partner (pCT vector); HA tag and vector linker; C-terminal c-myc tag) [yeast-displayed peptide artifact HTTS]",–,–,no binding (tested: 10 nM)
"{Aga2p-HA tag and linker}-RTTTS-{c‑myc tag} (reading uncertain, not shown: Aga2p of S. cerevisiae, yeast display fusion partner (pCT vector); HA tag and vector linker; C-terminal c-myc tag) [yeast-displayed peptide artifact RTTTS]",–,–,no binding (tested: 10 nM)
